In patent US7084109B2, “FVIIa antagonists” (Genentech, Inc., priority 1999, dated 2006):
No end group written: not given here.

What was measured:
TF-FVIIa = TF-FVIIa (Homo sapiens, UniProt P08709); assay: FX Activation Assay (activation of FX by TF-FVIIa); type: biochemical
Procedure: FX Activation Assay—Activation of FX by TF-FVIIa was monitored at room temperature as a function of peptide concentration. Each assay sample contained 100 μl of 460 pM relipidated TF1-243 (TFPC) (Kelley, R. F. et al. (1997) Blood 89:3219-3227) and 30 pM FVIIa in HBS/Ca buffer (20 mM HEPES, pH 7.4, 5 mM CaCl2, 150 mM NaCl, 0.1% PEG 8000); after 20 min, 25 μl of peptide diluted in HBS/Ca Buffer was added. Following a 30 min incubation the reaction was initiated by the addition of 25 μl of 1 μM FX in HBS/Ca (Note: this yields a final concentration of 306 pM TFPC, 20 pM FVIIa, and 166 nM FX). For kinetic analysis, the final concentration of FX was varied from between 20 and 500 nM. Aliquots of 25 μl were removed at 1, 3, 5, 7 and 9 min and quenched in 25 μl of 50 mM EDTA. The FXa generated in each aliquot could be measured by the addition of 100 μl of 250 nM Spectrozyme fXa (American Diagnostica), 50 mM Tris, pH 8, 50 mM NaCl, 0.0025% Triton X-100. The rate of FXa generated at each peptide concentration was proportional to the initial slope of the absorbance at 405 nm vs. time. Sigmoidal curves were fit to a four parameter equation by nonlinear regression analysis (Marquardt, J. Soc. Indust. Appl. Math. 11:431-441 (1963); the concentration of each peptide required to give a half-maximal signal in the assay was calculated from the curves and is referred to as the IC50 value. […]

[1] = tested on: TF dependent extrinsic clotting pathway in human plasma; assay: Prothrombin time (PT) clotting assay
Procedure: Clotting Assays—Prothrombin time (PT) and activated partial thromboplastin time (APTT) clotting time assays were performed in citrated pooled normal plasmas (human or various animal species). Clotting times were determined using an ACL 300 Automated Coagulation Analyzer (Coulter Corp., Miami, Fla.) and commercially available reagents as follows.
For the PT assay, aqueous solutions of inhibitor at various concentrations were added to citrated pooled normal plasma in a ratio of 1 part inhibitor to 9 parts plasma. Following a 30 min incubation, these mixtures were added to sample cups of an ACL 300 Analyzer. Innovin® (Dade International Inc., Miami, Fla.), a mixture of human relipidated tissue factor and Ca^2+ ions was added to the reagent cup. Precise volumes of sample and Innovin® (50 μl sample, 100 μl Innovin) were automatically transferred to cells of an acrylic rotor pre-equilibrated to 37° C. Following a 2 min incubation period, coagulation was initiated by mixing the two components by centrifugation. Coagulation was monitored optically and clotting time was reported in seconds. In this system, the clotting time of control plasmas (plasma plus inhibitor diluent) was typically 8 to 10 seconds. The fold prolongation is the clotting time of the inhibitor relative to the clotting time of the control.
Clotting Assays—The PT clotting assay was carried out as described in Example 1.

Chain of TF-FVIIa (P08709 61-212 limits assumed): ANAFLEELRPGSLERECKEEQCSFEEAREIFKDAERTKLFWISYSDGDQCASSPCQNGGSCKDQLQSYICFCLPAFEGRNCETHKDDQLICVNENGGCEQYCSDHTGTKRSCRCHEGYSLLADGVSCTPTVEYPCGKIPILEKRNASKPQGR
Chain of TF-FVIIa (P08709 213-466 limits assumed): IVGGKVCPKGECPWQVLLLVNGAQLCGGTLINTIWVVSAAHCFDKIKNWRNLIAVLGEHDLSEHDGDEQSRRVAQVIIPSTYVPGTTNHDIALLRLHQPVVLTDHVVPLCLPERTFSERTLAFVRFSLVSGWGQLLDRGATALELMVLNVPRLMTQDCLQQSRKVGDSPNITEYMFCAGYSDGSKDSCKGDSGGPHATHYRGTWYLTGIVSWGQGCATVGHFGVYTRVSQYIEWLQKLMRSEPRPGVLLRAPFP
Chain of TF-FVIIa (P13726 33-275 partner limits assumed): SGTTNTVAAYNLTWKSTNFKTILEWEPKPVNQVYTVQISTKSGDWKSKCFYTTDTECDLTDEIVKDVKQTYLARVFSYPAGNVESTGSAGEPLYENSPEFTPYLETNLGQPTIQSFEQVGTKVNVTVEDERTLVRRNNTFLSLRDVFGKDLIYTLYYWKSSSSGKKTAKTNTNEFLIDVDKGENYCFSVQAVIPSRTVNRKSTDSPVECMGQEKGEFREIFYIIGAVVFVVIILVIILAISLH

ability to inhibit FX activation by TF-FVIIa (TF-FVIIa): comparable to the peptide TF151
Substance: TF151-Fc: peptide sequence TF151 with a GGGSSG linker fused to the Fc portion of human IgG1, expressed in insect cells; forms a dimer (SQAQRRAVGALCDNPRIDRWYCQFVEGGGGSSG-{human IgG1 Fc}; cysteine pairing not given here; also: dimer)
prolongation of the prothrombin time (potency) [1]: comparable to peptide TF151
